Target: T1, purified α5ß1 ectodomain protein (human, UniProt P08648 42-995; P05556 21-728)
T1 construct: signal peptide in the construct; human integrin alpha-5, residues 1-995; human integrin beta-1, residues 1-728; Thrombin cleavage site between the integrin and the Fc; residues of the site may remain; also called purified and untagged α5ß1; α5ß1 integrin; not shown: Fc, C-terminal, cleaved
Test: SPR; ProteOn XPR36, GLC chip; rhTie1 (4750 RU) and rhTie2 (6400 RU) amine-coupled; α5ß1 at 3 μM flowed at 60 μL/min for 3 min; 25 degrees Celsius; 20 mM Tris, 100 mM NaCl, 1 mM MnCl2, 2 mM CaCl2 pH 7.5; BSA channel subtracted
Details: both partners purified

T1 sequence (P08648 42-995, chain 1 of 2): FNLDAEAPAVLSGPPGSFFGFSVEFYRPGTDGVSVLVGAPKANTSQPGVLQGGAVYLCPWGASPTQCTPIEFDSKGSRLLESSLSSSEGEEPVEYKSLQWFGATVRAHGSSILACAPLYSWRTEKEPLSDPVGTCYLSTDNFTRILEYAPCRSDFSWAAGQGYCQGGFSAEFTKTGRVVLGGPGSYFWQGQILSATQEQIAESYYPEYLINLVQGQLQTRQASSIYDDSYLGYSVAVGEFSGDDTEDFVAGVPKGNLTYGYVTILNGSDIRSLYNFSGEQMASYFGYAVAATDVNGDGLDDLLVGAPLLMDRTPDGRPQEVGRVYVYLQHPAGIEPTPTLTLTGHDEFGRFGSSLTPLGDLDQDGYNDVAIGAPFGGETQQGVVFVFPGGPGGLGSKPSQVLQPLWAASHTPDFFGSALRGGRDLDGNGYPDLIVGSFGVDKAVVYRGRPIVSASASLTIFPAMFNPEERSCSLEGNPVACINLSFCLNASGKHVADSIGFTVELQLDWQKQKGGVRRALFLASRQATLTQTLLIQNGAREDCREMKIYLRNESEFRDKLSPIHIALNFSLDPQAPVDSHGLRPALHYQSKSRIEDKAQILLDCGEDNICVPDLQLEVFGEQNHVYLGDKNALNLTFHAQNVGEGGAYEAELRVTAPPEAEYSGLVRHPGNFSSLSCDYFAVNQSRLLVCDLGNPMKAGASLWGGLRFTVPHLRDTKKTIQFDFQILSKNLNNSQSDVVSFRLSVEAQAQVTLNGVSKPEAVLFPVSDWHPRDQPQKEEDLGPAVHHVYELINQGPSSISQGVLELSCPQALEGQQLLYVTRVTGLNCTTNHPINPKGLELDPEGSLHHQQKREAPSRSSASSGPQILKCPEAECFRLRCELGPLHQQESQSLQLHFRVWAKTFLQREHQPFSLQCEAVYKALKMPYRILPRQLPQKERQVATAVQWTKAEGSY
T1 sequence (P05556 21-728, chain 2 of 2): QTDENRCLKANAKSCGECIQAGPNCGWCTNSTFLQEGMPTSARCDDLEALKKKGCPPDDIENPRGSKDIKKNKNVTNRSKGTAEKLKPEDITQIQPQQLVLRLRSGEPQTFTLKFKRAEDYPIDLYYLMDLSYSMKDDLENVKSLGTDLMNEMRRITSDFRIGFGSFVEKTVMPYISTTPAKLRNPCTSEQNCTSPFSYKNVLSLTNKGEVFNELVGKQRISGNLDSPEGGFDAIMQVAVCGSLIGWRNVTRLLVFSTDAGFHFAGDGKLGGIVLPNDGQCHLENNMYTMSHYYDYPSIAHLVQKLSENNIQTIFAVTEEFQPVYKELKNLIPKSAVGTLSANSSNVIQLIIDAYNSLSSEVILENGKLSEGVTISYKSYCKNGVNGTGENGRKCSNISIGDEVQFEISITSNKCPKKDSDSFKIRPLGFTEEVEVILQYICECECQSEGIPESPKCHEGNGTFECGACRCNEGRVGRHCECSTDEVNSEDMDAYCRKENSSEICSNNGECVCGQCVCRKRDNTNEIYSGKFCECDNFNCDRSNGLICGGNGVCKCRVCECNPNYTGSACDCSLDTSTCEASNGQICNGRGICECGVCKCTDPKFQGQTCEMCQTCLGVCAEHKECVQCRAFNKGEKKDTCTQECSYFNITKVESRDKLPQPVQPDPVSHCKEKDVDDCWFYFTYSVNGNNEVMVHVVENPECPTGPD

binding result: binds
B1: recombinant human Tie1 (rhTie1) extracellular domain, Fc tagged (Fc fusion, UniProt P35590 22-759, looked up)
chain: AVDLTLLANLRLTDPQRFFLTCVSGEAGAGRGSDAWGPPLLLEKDDRIVRTPPGPPLRLARNGSHQVTLRGFSKPSDLVGVFSCVGGAGARRTRVIYVHNSPGAHLLPDKVTHTVNKGDTAVLSARVHKEKQTDVIWKSNGSYFYTLDWHEAQDGRFLLQLPNVQPPSSGIYSATYLEASPLGSAFFRLIVRGCGAGRWGPGCTKECPGCLHGGVCHDHDGECVCPPGFTGTRCEQACREGRFGQSCQEQCPGISGCRGLTFCLPDPYGCSCGSGWRGSQCQEACAPGHFGADCRLQCQCQNGGTCDRFSGCVCPSGWHGVHCEKSDRIPQILNMASELEFNLETMPRINCAAAGNPFPVRGSIELRKPDGTVLLSTKAIVEPEKTTAEFEVPRLVLADSGFWECRVSTSGGQDSRRFKVNVKVPPVPLAAPRLLTKQSRQLVVSPLVSFSGDGPISTVRLHYRPQDSTMDWSTIVVDPSENVTLMNLRPKTGYSVRVQLSRPGEGGEGAWGPPTLMTTDCPEPLLQPWLEGWHVEGTDRLRVSWSLPLVPGPLVGDGFLLRLWDGTRGQERRENVSSPQARTALLTGLTPGTHYQLDVQLYHCTLLGPASPPAHVLLPPSGPPAPRHLHAQALSDSEIQLTWKHPEALPGPISKYVVEVQVAGGAGDPLWIDVDRPEETSTIIRGLNASTRYLFRMRASIQGLGDWSNTVEESTLGNGLQAEGPVQESRAAEEGLDQ
notes: human Tie1, full extracellular domain; amine-coupled to a GLC sensor chip; also called immobilized Tie1

Reference: PMC5047623 (PLoS ONE, 2016)
